US20020177126A1 (published 2002)
Several values for one entry are separate records, joined by “and”; a condition that tells them apart may be missing. Equal values may be shown once.

Columns and labels:
[1] = target: T1, F protein of wild type RSV A/Long (respiratory syncytial virus, strain …, UniProt P12568 26-574); experiment: cell-based or functional assay
[2] = target: F protein (RSV F glycoprotein immobilised on the BIAcore sensor chip) (respiratory syncytial virus (RSV), UniProt P03420 26-524); experiment: BIAcore, immobilised F protein
[3] = target: T2, F protein of RSV A/Long MARM #11 (selected with A4B4) (respiratory syncytial virus, strain …, UniProt P12568 26-574); experiment: IFA on MARM-infected HEp-2 cells
T2 construct: whole, on cells

[4] = target: T3, F protein of RSV A/Long MARM #6 (selected with A4B4) (respiratory syncytial virus, strain …, UniProt P12568 26-574); experiment: IFA on MARM-infected HEp-2 cells
T3 construct: whole, on cells

[5] = target: T4, F protein of RSV A/Long MARM #10 (selected with A4B4) (respiratory syncytial virus, strain …, UniProt P12568 26-574); experiment: IFA on MARM-infected HEp-2 cells
T4 construct: whole, on cells

[6] = target: T5, F protein of RSV A/Long MARM #9 (selected with A4B4) (respiratory syncytial virus, strain …, UniProt P12568 26-574); experiment: IFA on MARM-infected HEp-2 cells
T5 construct: whole, on cells

[7] = target: T6, F protein of RSV A/Long MARM B4 (respiratory syncytial virus, strain …, UniProt P12568 26-574); experiment: IFA on MARM-infected HEp-2 cells
T6 construct: whole, on cells

[8] = target: T7, F protein of RSV A/Long MARM B1 (respiratory syncytial virus, strain …, UniProt P12568 26-574); experiment: IFA on MARM-infected HEp-2 cells
T7 construct: whole, on cells

[9] = target: T8, F protein of RSV A/Long MARM B6 (respiratory syncytial virus, strain …, UniProt P12568 26-574); experiment: IFA on MARM-infected HEp-2 cells
T8 construct: whole, on cells

[10] = target: T9, F protein of RSV A/Long MARM B7 (respiratory syncytial virus, strain …, UniProt P12568 26-574); experiment: IFA on MARM-infected HEp-2 cells
T9 construct: whole, on cells

[11] = target: T10, F protein of RSV A/Long MARM B10 (respiratory syncytial virus, strain …, UniProt P12568 26-574); experiment: IFA on MARM-infected HEp-2 cells
T10 construct: whole, on cells

[12] = target: T11, F protein of RSV A/Long MARM B3 (respiratory syncytial virus, strain …, UniProt P12568 26-574); experiment: IFA on MARM-infected HEp-2 cells
T11 construct: whole, on cells

[13] = target: T12, F protein of RSV A/Long MARM B8 (respiratory syncytial virus, strain …, UniProt P12568 26-574); experiment: IFA on MARM-infected HEp-2 cells
T12 construct: whole, on cells

[14] = target: T13, F protein of RSV A/Long MARM B14 (respiratory syncytial virus, strain …, UniProt P12568 26-574); experiment: IFA on MARM-infected HEp-2 cells
T13 construct: whole, on cells

[15] = target: T14, F protein of RSV A/Long MARM B2 (respiratory syncytial virus, strain …, UniProt P12568 26-574); experiment: IFA on MARM-infected HEp-2 cells
T14 construct: whole, on cells

[16] = target: T15, F protein of RSV A/Long MARM B15 (respiratory syncytial virus, strain …, UniProt P12568 26-574); experiment: IFA on MARM-infected HEp-2 cells
T15 construct: whole, on cells

[17] = target: T16, F protein of RSV A/Long MARM B13 (respiratory syncytial virus, strain …, UniProt P12568 26-574); experiment: IFA on MARM-infected HEp-2 cells
T16 construct: whole, on cells

Bac-F = Bac-F (UniProt P03420 26-524); experiment: BIAcore, Mab vs Bac-F, 1:1
[18] = target: T1, F protein of wild type RSV A/Long; experiment: cell-based or functional assay; remark: listed apart in the source
[19] = target: T17, F protein of RSV A/Long MARM B9 (respiratory syncytial virus, strain …, UniProt P12568 26-574); experiment: IFA on MARM-infected HEp-2 cells
T17 construct: whole, on cells

[20] = target: T18, F protein of MARM #13 (selected with A4B4 from MARM B9) (respiratory syncytial virus, strain …, UniProt P12568 26-574); experiment: IFA on MARM-infected HEp-2 cells
T18 construct: whole, on cells

Binder | EC50, RSV (Long) microneutralization [1] [pM] | koff [2] | kon [2] | binding result [3] | binding result [4] | binding result [5] | binding result [6] | Kd (Bac-F) [pM] | koff (Bac-F) [s⁻¹] | kon (Bac-F) [M⁻¹ s⁻¹] | number in parentheses after KD (fold vs SYNAGIS) (Bac-F) [fold] | Mean IC50 (Control), RSV microneutralization [18] [µg/mL] | Mean IC50 (Curve), RSV microneutralization [18] [µg/mL] | binding result [20] | Fold Difference (Control IC50) [18] [fold] | Fold Difference (Curve IC50) [18] [fold] | further results
SYNAGIS® (antibody, V domains shown, also called SYNAGIS ®/SYNAGIS ® (HC/LC)) VH: QVTLRESGPALVKPTQTLTLTCTFSGFSLSTSGMSVGWIRQPPGKALEWLADIWWDDKKDYNPSLKSRLTISKDTSKNQVVLKVTNMDPADTATYYCARSMITNWYFDVWGAGTTVTVSS VL: DIQMTQSPSTLSASVGDRVTITCKCQLSVGYMHWYQQKPGKAPKLLIYDTSKLASGVPSRFSGSGSGTEFTLTISSLQPDDFATYYCFQGSGYPFTFGGGTKLEIK | 3570 | 0.000764 s⁻¹ and 0.000738 s⁻¹ and 0.000702 s⁻¹ | 204000 M⁻¹ s⁻¹ and 189000 M⁻¹ s⁻¹ and 218000 M⁻¹ s⁻¹ | no binding (tested: 250 ng/ml) | no binding (tested: 250 ng/ml) | no binding (tested: 250 ng/ml) | no binding (tested: 250 ng/ml) | 3900 | 0.000515 | 132000 | 1 | 0.535 | 0.453 | no binding (tested: 250 ng/ml) |  |  | binding result [7]: no binding (tested: 250 ng/ml); binding result [8]: no binding (tested: 250 ng/ml); binding result [9]: no binding (tested: 250 ng/ml); binding result [10]: no binding (tested: 250 ng/ml); binding result [11]: no binding (tested: 250 ng/ml); binding result [12]: no binding (tested: 250 ng/ml); binding result [13]: no binding (tested: 250 ng/ml); binding result [14]: no binding (tested: 250 ng/ml); binding result [15]: no binding (tested: 250 ng/ml); binding result [16]: no binding (tested: 250 ng/ml); binding result [17]: no binding (tested: 250 ng/ml); binding result [19]: no binding (tested: 250 ng/ml)
P11d4 (Fab) (Fab, V domains shown) VH: QVTLRESGPALVKPTQTLTLTCTFSGFSLSTPGMSVGWIRQPPGKALEWLADIWWDGKKHYNPSLKDRLTISKDTSKNQVVLKVTNMDPADTATYYCARDMIFNWYFDVWGQGTTVTVSS VL: DIQMTQSPSTLSASVGDRVTITCSPSSRVGYMHWYQQKPGKAPKLLIYDTMRLASGVPSRFSGSGSGTEFTLTISSLQPDDFATYYCFQGSGYPFTFGGGTKVEIK | > 20000 | 0.000717 s⁻¹ | 570000 M⁻¹ s⁻¹ and 572000 M⁻¹ s⁻¹ |  |  |  |  |  |  |  |  | > 1 | > 1 |  |  |  | 
A13c4 (Fab) (Fab, V domains shown) VH: QVTLRESGPALVKPTQTLTLTCTFSGFSLSTAGMSVGWIRQPPGKALEWLADIWWDGKKSYNPSLKDRLTISKDTSKNQVVLKVTNMDPADTATYYCARDMIFNFYFDVWGQGTTVTVSS VL: DIQMTQSPSTLSASVGDRVTITCSLSSRVGYMHWYQQKPGKAPKLLIYDTMYQSSGVPSRFSGSGSGTEFTLTISSLQPDDFATYYCFQGSGYPFTFGGGTKVEIK | 520 | 0.00028 s⁻¹ | 781000 M⁻¹ s⁻¹ and 735000 M⁻¹ s⁻¹ |  |  |  |  |  |  |  |  | 0.0258 | 0.0264 |  | 21 | 17 | 
P12f4 (Fab) (Fab, V domains shown) VH: QVTLRESGPALVKPTQTLTLTCTFSGFSLSTPGMSVGWIRQPPGKALEWLADIWWDGKKHYNPSLKDRLTISKDTSKNQVVLKVTNMDPADTATYYCARDMIFNFYFDVWGQGTTVTVSS VL: DIQMTQSPSTLSASVGDRVTITCSLSSRVGYMHWYQQKPGKAPKLLIYDTRGLPSGVPSRFSGSGSGTEFTLTISSLQPDDFATYYCFQGSGYPFTFGGGTKVEIK | 700 | 0.000299 s⁻¹ | 527000 M⁻¹ s⁻¹ |  |  |  |  |  |  |  |  | 0.0351 | 0.0464 |  | 15 | 10 | 
A12a6 (Fab) (Fab, V domains shown) VH: QVTLRESGPALVKPTQTLTLTCTFSGFSLSTAGMSVGWIRQPPGKALEWLADIWWDGKKDYNPSLKDRLTISKDTSKNQVVLKVTNMDPADTATYYCARDMIFNFYFDVWGQGTTVTVSS VL: DIQMTQSPSTLSASVGDRVTITCSASSRVGYMHWYQQKPGKAPKLLIYDTFKLSSGVPSRFSGSGSGTEFTLTISSLQPDDFATYYCFQGSGYPFTFGGGTKVEIK | 620 | 0.00023 s⁻¹ | 743000 M⁻¹ s⁻¹ |  |  |  |  |  |  |  |  | 0.031 | 0.0287 |  | 17 | 16 | 
A4B4 (monoclonal antibody) (antibody, V domains shown, also called A4B4/A4B4 (HC/LC)) VH: QVTLRESGPALVKPTQTLTLTCTFSGFSLSTAGMSVGWIRQPPGKALEWLADIWWDDKKHYNPSLKDRLTISKDTSKNQVVLKVTNMDPADTATYYCARDMIFNFYFDVWGQGTTVTVSS VL: DIQMTQSPSTLSASVGDRVTITCSASSRVGYMHWYQQKPGKAPKLLIYDTFFLDSGVPSRFSGSGSGTEFTLTISSLQPDDFATYYCFQGSGYPFTFGGGTKLEIK |  |  |  | no binding (tested: 250 ng/ml) | no binding (tested: 250 ng/ml) | no binding (tested: 250 ng/ml) | no binding (tested: 250 ng/ml) | 20 | 1.06e-05 | 434000 | 195 | 0.0154 | 0.0171 | no binding (tested: 250 ng/ml) | 35 | 27 | 
